The source of these data is US20040022772A1 (University of Texas, published 2004).

The target of this assay is T1, p185 BCR-ABL (human, UniProt P00519 27-1130).
T1 construct: Endogenous protein of the SUP-B15 ALL cell line; also called Bcr-Abl oncoprotein (SUP-B15 cells)
Kind of assay: co-precipitation of Bcr-Abl with Bcr by anti-BCR (1256-1271), immunokinase assay, SUP-B15 cells. How it is done:
The effects of the sense and antisense 3′ BCR oligonucleotides were tested on BCR expression in SUP-Bi5 cells, a cell line derived from a Ph¹-positive acute lymphocytic leukemia patient that expresses p185 BCR—ABL.
In this study, equal amounts of the sense and the antisense oligonucleotide treated B15 cells were analyzed.

B1: p160 BCR (enzyme, human, UniProt P11274 1-1271, looked up)
chain: MVDPVGFAEAWKAQFPDSEPPRMELRSVGDIEQELERCKASIRRLEQEVNQERFRMIYLQTLLAKEKKSYDRQRWGFRRAAQAPDGASEPRASASRPQPAPADGADPPPAEEPEARPDGEGSPGKARPGTARRPGAAASGERDDRGPPASVAALRSNFERIRKGHGQPGADAEKPFYVNVEFHHERGLVKVNDKEVSDRISSLGSQAMQMERKKSQHGAGSSVGDASRPPYRGRSSESSCGVDGDYEDAELNPRFLKDNLIDANGGSRPPWPPLEYQPYQSIYVGGMMEGEGKGPLLRSQSTSEQEKRLTWPRRSYSPRSFEDCGGGYTPDCSSNENLTSSEEDFSSGQSSRVSPSPTTYRMFRDKSRSPSQNSQQSFDSSSPPTPQCHKRHRHCPVVVSEATIVGVRKTGQIWPNDGEGAFHGDADGSFGTPPGYGCAADRAEEQRRHQDGLPYIDDSPSSSPHLSSKGRGSRDALVSGALESTKASELDLEKGLEMRKWVLSGILASEETYLSHLEALLLPMKPLKAAATTSQPVLTSQQIETIFFKVPELYEIHKEFYDGLFPRVQQWSHQQRVGDLFQKLASQLGVYRAFVDNYGVAMEMAEKCCQANAQFAEISENLRARSNKDAKDPTTKNSLETLLYKPVDRVTRSTLVLHDLLKHTPASHPDHPLLQDALRISQNFLSSINEEITPRRQSMTVKKGEHRQLLKDSFMVELVEGARKLRHVFLFTDLLLCTKLKKQSGGKTQQYDCKWYIPLTDLSFQMVDELEAVPNIPLVPDEELDALKIKISQIKNDIQREKRANKGSKATERLKKKLSEQESLLLLMSPSMAFRVHSRNGKSYTFLISSDYERAEWRENIREQQKKCFRSFSLTSVELQMLTNSCVKLQTVHSIPLTINKEDDESPGLYGFLNVIVHSATGFKQSSNLYCTLEVDSFGYFVNKAKTRVYRDTAEPNWNEEFEIELEGSQTLRILCYEKCYNKTKIPKEDGESTDRLMGKGQVQLDPQALQDRDWQRTVIAMNGIEVKLSVKFNSREFSLKRMPSRKQTGVFGVKIAVVTKRERSKVPYIVRQCVEEIERRGMEEVGIYRVSGVATDIQALKAAFDVNNKDVSVMMSEMDVNAIAGTLKLYFRELPEPLFTDEFYPNFAEGIALSDPVAKESCMLNLLLSLPEANLLTFLFLLDHLKRVAEKEAVNKMSLHNLATVFGPTLLRPSEKESKLPANPSQPITMTDSWSLEVMSQVQVLLYFLQLEAIPAPDSKRQSILFSTEV
notes: also called normal Bcr protein; wild-type Bcr
For B1, the binding result is on record as “binds”.
